The target of this assay is T1, recombinant human VEGF165 (human, UniProt P15692-4 27-191, biotinylated (Sulfo-NHS-LC-Biotin) in the competition assays).
T1 construct: also called hVEGF165; rhVEGF165
The experiment in a line: Biacore, periplasmic extract, VEGF165 chip, two phase decay fit. The arrangement: unit not given here. As to the method:
Dissociation rates of inhibitory VHHs are analyzed on Biacore (Biacore T100 instrument, GE Healthcare). HBS-EP+ buffer is used as running buffer and experiments are performed at 25° C. […] After immobilization, surfaces are deactivated with 10 min injection of 1 M ethanolamine pH8.5. A reference surface is activated and deactivated with respectively EDC/NHS and ethanolamine. Periplasmic extracts of VHHs are injected at a 10-fold dilution in running buffer for 2 min at 45 μl/min and allowed to dissociate for 10 or 15 min. Between different samples, the surfaces are regenerated with regeneration buffer. Data are double referenced by subtraction of the curves on the reference channel and of a blank running buffer injection. […] is evaluated by fitting a two phase decay model in the Biacore T100 Evaluation software v2.0.1.
On the technique in general: SPR reads the build-up and loss of mass on a sensor chip optically.

T1 sequence (P15692 other isoform, or with tags, fused parts or gaps limits assumed): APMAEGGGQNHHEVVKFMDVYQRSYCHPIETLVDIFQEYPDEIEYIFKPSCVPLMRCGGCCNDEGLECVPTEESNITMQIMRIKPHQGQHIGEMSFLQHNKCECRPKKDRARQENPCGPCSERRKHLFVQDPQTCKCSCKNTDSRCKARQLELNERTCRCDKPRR

B1: VEGFBII42D05 (VHH, not shown: small tags and cut ends)
VHH: EVQLVESGGGLVQPGDSLKLSCAFSGRTFSSYSMGWFRQAQGKEREFVVAISSSGGYIYDSVSLEGRFTISRDNTKNTVYLQTPSLKPEDTAVYYCAASRAYGSSRLRLADTYDYWGQGTQVTVSS
As to B1, the “kd(fast)” value came out at 0.033 and the “kd(slow)” value came out at 0.00015.

B2: VEGFBII23G03 (VHH, not shown: small tags and cut ends)
VHH: EVQLVESGGGLVQPGDSLKLSCAFSGRTFGSYSMGWFRQAQGKEREFVVAISSSGGYIYDSVSLEGRFTISRDNSKNTVYLQTPSLKPEDTAVYYCAASRAYGSSRLRLPGTYDYWGQGTQVTVSS
In the case of B2, the “kd(fast)” value amounted to 0.028 and the “kd(slow)” value stood at 8.6e-05.

B3: VEGFBII22B06 (VHH, not shown: small tags and cut ends)
VHH: EVQLVESGGGLVQPGDSLKLSCAASGRTFSSYSMGWFRQAQGKEREFVVAISSSGGYIYDSVSLEGRFTISRDNTKNTVYLQTPSLKPEDTAVYYCAASRAYGSSRLRLADTYDYWGQGTQVTVSS
As for B3, the “kd(fast)” value came out at 0.038 and the “kd(slow)” value is 9e-05.

B4: VEGFBII23F05 (VHH, not shown: small tags and cut ends)
VHH: EVQLVESGGGLVQAGDSLRLSCAASGRTFSSYSMGWFRQAQGKEREFVVAISSSGNYKYDSVSLEGRFTISRDNTKNTVYLQINSLKPKDTAVYYCAASRAYGSSRLRLGDTYDYWGQGTQVTVSS
With B4, the “kd(fast)” value was determined as 0.016 and the “kd(slow)” value came to 0.00013.

B5: VEGFBII39G04 (VHH, not shown: small tags and cut ends)
VHH: EVPLVESGGGLVQAGDSLRLSCAASGRTFSSYSMGWFRQAQGKEREFVVAISSSGNYKYDSASLEGRFTISRDNTKNTVYLQINSLKPEDTAVYYCAASRAYGSSRLRLGDTYDYWGQGTQVTVSS
For the molecule B5, the “kd(fast)” value came to 0.014 and the “kd(slow)” value stood at 0.00074.

B6: VEGFBII22A10 (VHH, not shown: small tags and cut ends)
VHH: EVQLVESGGGLVQPGDSLKLSCAFSGRTFSSYSMGWFRQAQGKEREFVVAISSSGGYIYDSVSLEGRFTISRDNTKNTVYLQTPSLKPEDTADYYCAASRAYGSSRLRLADTYDYWGQGTQVTVSS
With B6, the “kd(fast)” value is 0.037 and the “kd(slow)” value came to 4e-05.

B7: VEGFBII31C07 (VHH, not shown: small tags and cut ends)
VHH: EVQLVESGGGLVQTGDSLRLSCAASGGTFSSYSMGWFRQAQGKEREFVVAISSSGGYIYDSVSLEGRFTISRDNTKNTVYLQTPSLKPEDTADYYCAASRAYGSSRLRLADTYDYWGQGTQVTVSS
Turning to B7, the “kd(fast)” value was determined as 0.037 and the “kd(slow)” value amounted to 0.00015.

B8: VEGFBII23F11 (VHH, not shown: small tags and cut ends)
VHH: EVQLVESGGGLVQPGDSLKLSCAFSGRTFSSYSMGWFRQAQGKEREFVVAISSGGGYIYDSVSLEGRFTISRDNTKNTVYLQTPSLKPEDTADYYCAASRAYGSSRLRLADTYDYWGQGTQVTVSS
In the case of B8, the “kd(fast)” value came to 0.027 and the “kd(slow)” value came out at 0.00013.

B9: VEGFBII22B07 (VHH, not shown: small tags and cut ends)
VHH: EVQLVESGGGLVQAGDSLRLSCAASGRTFSSYSMGWFRQAQGKEREFVVAISSSGNYKYDSVSLEGRFTISRDNTKNTVYLQINSLKPEDTAVYYCAASRAYGSSRLRLGDTYDYWGQGTQVTVSS
On to B9, for which the “kd(fast)” value was determined as 0.015 and the “kd(slow)” value turned out to be 7.8e-05.

B10: VEGFBII39E02 (VHH, not shown: small tags and cut ends)
VHH: EVQLVESGGGLVQPGDPLKLSCAFSGRTFSSYSMGWFRQAQGKEREFVVAISSSGGYIYDSVSLEGRFTISRDNTKNTVYLQTPSLKPEDTADYYCAASRAYGSSRLRLADTYDYWGQGTQVTVSS
With B10, the “kd(fast)” value is 0.019 and the “kd(slow)” value came to 0.00024.

B11: VEGFBII23A09 (VHH, not shown: small tags and cut ends)
VHH: EVQLVESGGGLVQPGDSLKLSCAFSGRTFGSYSMGWFRQAQGKEREFVVAISSSGGYIYDSVSLEGRFTISRDNSKNTVYLQTPSLKPEDTAVYYCAASRAYGSSRLRLPDTYDYWGQGTQVTVSS
Regarding B11, the “kd(fast)” value was determined as 0.027 and the “kd(slow)” value came to 4.6e-05.

B12: VEGFBII30E07 (VHH, not shown: small tags and cut ends)
VHH: EVQLVESGGGLVQAGDSLRLSCAASGRTFSSYSMGWFRQAQGKEREFVVAISSSGNYKYDSVSLEGRFTISRDNTKNTVYLQINSLKPEDTAVYYCAASRAYGSSRLRLGDTYDYWGQGTRVTVSS
B12: the “kd(fast)” value worked out at 0.017 and the “kd(slow)” value was 0.00013.

B13: VEGFBII23A03 (VHH, not shown: small tags and cut ends)
VHH: EVQLVESGGGLVQPGDSLKLSCVASGRTFSSYSMGWFRQAQGKEREFVVAISSGGYIYDSVSLQGRFTISRDNTKNTVYLQTPSLKPEDTAVYYCAASRAYGSSRLRLADTYDYWGQGTQVTVSS
On to B13, for which the “kd(fast)” value came out at 0.015 and the “kd(slow)” value is 3.2e-05.

B14: VEGFBII23E05 (VHH, not shown: small tags and cut ends)
VHH: EVQLVESEGGLVQPGDSLKLSCVASGRTSSSYSMGWFRQAQGKEREFVVAISSGGYIYDSVSLQGRFTISRDNTKNTVYLQTPSLKPEDTAVYYCAASRAYGSSRLRLADTYDYWGQGTQVTVSS
Consider B14, for which the “kd(fast)” value is 0.015 and the “kd(slow)” value is 6.9e-05.

B15: VEGFBII30C09 (VHH, not shown: small tags and cut ends)
VHH: EVQLVESGGGLVQPGDSLKLSCIASGRTSSSYSMGWFRQAQGQEREFVVAISSGGYIYDSVSLQGRFTISRDNTKNTVYLQTPSLKPEDTAVYYCAASRAYGSSRLRLADTYDYWGQGTQVTVSS
For the molecule B15, the “kd(fast)” value worked out at 0.015 and the “kd(slow)” value stood at 7.6e-05.

B16: VEGFBII23A08 (VHH, not shown: small tags and cut ends)
VHH: EVQLVESGGGLVQTGDSLRLSCVASGRTFSSYSMGWFRQAQGKEREFVVAISNGGYKYDSVSLEGRFTISRDNTKNTVYLQINSLKPEDTAVYYCAASRAYGSSRLRLADTYDYWGQGTQVTVSS
Regarding B16, the “kd(fast)” value was 0.013 and the “kd(slow)” value was determined as 5e-05.

B17: VEGFBII62F02 (VHH, not shown: small tags and cut ends)
VHH: EVQLVESGGGLVQPGDSLKLSCAFSGRTFSSYSMGWFRQAQGKEREFVVAIASGGYIYDAVSLEGRFTISRDNTKDTVYLQTPSLKPEDTAVYYCAASRAYGSSRLRLADTYDYWGQGTQVTVSS
As for B17, the “kd(fast)” value came to 0.014 and the “kd(slow)” value worked out at 8.5e-05.

B18: VEGFBII42F11 (VHH, not shown: small tags and cut ends)
VHH: EVQLVESGGGLVQPGDSLKLSCVASGRTSSSYSVGWFRQAQGKEREFVVAISSGGYIYDSVSLQGRFTISRDNTKNTVYLQTPSLKPEDTAVYYCAASRAYGSSRLRLADTYDYWGQGTQVTVSS
On to B18, for which the “kd(fast)” value is 0.0091 and the “kd(slow)” value was 0.0005.

B19: VEGFBII61A01 (VHH, not shown: small tags and cut ends)
VHH: EVQLVESGGGLVQAGGSLRLSCAFSGRTFSSYSMGWFRQAQGKEREFVVAISSGGYKYDAVSLEGRFTISRDNTKNTVYLQTPSLKPEDTAVYYCAASRAYASSRLRLADTYDYWGQGTQVTVSS
With B19, the “kd(fast)” value is 0.0074 and the “kd(slow)” value is 0.00017.

B20: VEGFBII41G03 (VHH, not shown: small tags and cut ends)
VHH: EVQLVESGGGLVQPGDSLKLSCAFSGRTFSSYSMAWFRQAQGKEREFVVAISSGGFIYDAVSLEGRFTISRENTKNTVYLQTPSLKPEDTAVYYCAASRAYGSSRLRLADTYDYWGQGTQVTVSS
As for B20, the “kd(fast)” value worked out at 0.012 and the “kd(slow)” value worked out at 0.00027.

B21: VEGFBII41B05 (VHH, not shown: small tags and cut ends)
VHH: EVQLVESGGGLVQPGGSLRLSCAFSGRTFSSYSMGWFRQAQGKEREFVVAISSGGFIYDAVSLEGRFTISRDNTKNTVYLQTPSLKPEDTAVYYCAASRAYGSSRLRLADTYDYWGQGTQVTVSS
As to B21, the “kd(fast)” value stood at 0.019 and the “kd(slow)” value is 0.00012.

B22: VEGFBII22A11 (VHH, not shown: small tags and cut ends)
VHH: EVQLVESGGGLVQPGDSLKLSCAFSGRTFSSYSMAWFRQAQGKEREFVVAISSGGFIYDAVSLEGRFTISRDNTKNTVYLQTPSLKPEDTAVYYCAASRAYGSSRLRLADTYDYWGQGTQVTVSS
For the molecule B22, the “kd(fast)” value was 0.022 and the “kd(slow)” value was 4.7e-05.

B23: VEGFBII27D08 (VHH, not shown: small tags and cut ends)
VHH: EVQLVESGGGLVQTGDSLRLSCAASGRTFSSYSMGWFRQAQGKEREFVVAISSGGYKYDSVSLEGRFTISRDNTQNTVYLQINSLKPEDTAVYYCAASRAYGSGRLRLADTYDYWGQGTQVTVSS
Consider B23, for which the “kd(fast)” value was 0.024 and the “kd(slow)” value was found to be 8.1e-05.

B24: VEGFBII40F02 (VHH, not shown: small tags and cut ends)
VHH: EVQLVESGGGLVQPGDSLKLSCAFSGRTFSSYSMAWFRQAQGKEREFVVAISSGGFIYDAVSLEGRFTISRDNTKNTVYLQTPSLKPEGTAVYYCAASRAYGSSRLRLADTYDYWGQGTQVTVSS
B24: the “kd(fast)” value came to 0.012 and the “kd(slow)” value was 9.8e-05.

B25: VEGFBII23D11 (VHH, not shown: small tags and cut ends)
VHH: EVQLVESGGGLVQPGDSLRLSCAFSGRTFSSYSMAWFRQAQGKEREFVVAISSGGFIYDAVSLEGRFTISRDNTKNTVYLQTPSLKPEDTAVYYCAASRAYGSSRLRLADTYDYWGQGTQVTVSS
For B25, the “kd(fast)” value is 0.019 and the “kd(slow)” value amounted to 5.8e-05.

B26: VEGFBII22E04 (VHH, not shown: small tags and cut ends)
VHH: EVQLVESGGGLVQPGDSLKLSCVASGRTSSSYSMGWFRQAQGKEREFVVAISSGGSIYDSVSLQGRFTISRDNTKNTVYLQTPSLKPEDTAVYYCAASRAYASSRLRLADTYDYWGQGTQVTVSS
For B26, the “kd(fast)” value came to 0.018 and the “kd(slow)” value came to 0.00011.

B27: VEGFBII27G07 (VHH, not shown: small tags and cut ends)
VHH: EVQLVESGGGLVQPGDSLKLSCVASGRTSSSYSMGWFRQAQGQEREFVVAISSGGYIYDSVSLQGRFTISRDNTKNTVYLQTPSLKPEDTAVYYCAASRAYGSSRLRLADTYDYWGQGTQVTVSS
For the molecule B27, the “kd(fast)” value amounted to 0.013 and the “kd(slow)” value was 3.8e-05.
